Reference: the DeepSol protein solubility set

Experiment: soluble on expression in E. coli; label from the status in PepcDB or PDB records
With “GPGSMFLNNNMVDDARTVQLLEEIDVQLERWGKKYGLDPSNEKQKRIPTAGGGDIKPSASSQRSHDVPNVKFVNDRTNSKVGIVETAAVAAPQGFDPSALFDRIDMLEKKLKVAEEERMILSERLFAAERIVVEVVNAQKGLQDEWAALSTQSFSISHLDDDRRTIVDSGKTSKRDCAFTSYTTQSRQSTQSGNSSVAGLSAFVSPAKEDTSRSCLQSPVRNAGSSGSVLGGEEEEDVVGATERRLFALDDLAQRLAV” the “soluble on expression in E. coli” value was “not soluble”. With “MSTPLMQRSLSPQEWQVFQRGDRWTGARLHQPLNLLLIGSKVLTSDLDHPPDPNLTYHALVNSVEGLSDSLLLVRFDPVQQRLVILSIPRDTLTFIPGRGDAKINEANALGGPALAAATVSELLGNVPIDRYLRINVQGIEKLIDALGGVTLDVPIAMRYRDESQHLYIDLQAGRHHLNGQQALQFLRFRYDALGDIGRVQRQQMFLRTLMEQTARPETLARTPHILSIIRENLDTNLTVEELMSLGQFLTRLPRSRVQFLLLPGNFNGTTEEVAVSYWLPNYQRIAWLTDQYFRDTPTADPRETGLPSPAQVRIAIQNTNLPQSLVMRLSEQLATAGYPHPLVAEPLPQPIPITRIIAQQGDLAAARQVQLLLGFGEVRVESTGVLASDVTIQLGDDARDRLQLRRTTSLLEHHHHHH” the “soluble on expression in E. coli” value was “soluble”. For “MKVVLQRVTRAAVTVGDEVVGSIGRGLCVLVGVHRDDTEEDMKYIIRKILNLRVFPASEQKPWDKSVMDLDLEVLSVSQFTLYGQFKGNKLDFHTAMAPTEASKFYASFLEAMKKAYKADKIQDGKFAAMMSVDIVNDGPVTVTFDSKEK”, the “soluble on expression in E. coli” value was “not soluble”. In the case of “MGSDKIHHHHHHHPCARLSVRMSSTGIDRKGVLANRVAVVTGSTSGIGFAIARRLARDGAHVVISSRKQQNVDRAMAKLQGEGLSVAGIVCHVGKAEDREQLVAKALEHCGGVDFLVCSAGVNPLVGSTLGTSEQIWDKILSVNVKSPALLLSQLLPYMENRRGAVILVSSIAAYNPVVALGVYNVSKTALLGLTRTLALELAPKDIRVNCVVPGIIKTDFSKVFHGNESLWKNFKEHHQLQRIGESEDCAGIVSFLCSPDASYVNGENI”, the “soluble on expression in E. coli” value is reported as “not soluble”. In the case of “MGSDKIHHHHHHMQIKALIYFDELVRTRSMRAAAERLNVQPTAFARQIDQLEHYFGTVLIERSSRGIQLTAAGELLAARAGKTLRELNHVHQLIDDLQGLKRGHVTIHANGATVANLLAPALADFSLVYPNIRFSVTISSAGQAMEALSSAKADMAVTLFSEPDPGIRVRARAQIVYDVIAASHHPAAHLAEMTVTELARFPLAVPDGSFGARRAFDAWFSKAGLELDPVFVTGSLEMQRELVLRGAALTLLPAQTVARERRSGELVVIPVAGGAGIRTPIDLCVAGDRQLSFAASKLVDAVERFMREQMGK”, the “soluble on expression in E. coli” value is reported as “not soluble”. With “MSLKIYGVYRSRASRPLWLLAELDLPFEHVPVIQANRVAHPHGPEAPLNTASAAYLAVNPLGQIPCLEEEGLILTESLAITLHIARTQGGQLGPRSEPEDALMVSWSLFAATAVEPPALEIQLIQRSGGGTSPEGQAAIAIAAERLRRPLARLERHFAAEDYLVGGRFTVADLNLAETLRYGQAHPALLEPFPAVAAWLDRCQSRPAFRLMMERRAAEGHHHHHH” the “soluble on expression in E. coli” value was “soluble”. With “MSLLIKFESKSARVKGISFHPTRPWVLTSLHSGVIQLWDYRMCVLLEKFDEHDGPVRGICFHHDQPIFVSGGDDYKIKVWNYKQKRCIFTLLGHLDYIRTTFFHHKYPWIISASDDQTVRIWNWQSRNSIAILTGHNHYVMCAQFHPTEDLVASASLDQTVRVWDISGLRKKQMPGGGAPSRPTGGQQAELFGQPDAVVKHVLEGHDRGVNWVAFHHTNPILVSGSDDRQVKIWRYNETKAWELDSCRGHYNNVSSVIFHPNADLILSNSEDKSIRVWDMQKRTSLHVFRHENERFWVLAAHPSLNMFAAGHDNGMVVFKIQRERPAYCVSDNLVFYVKGQQIRKLDLTTNKDVALCKLRYPQPFMQPYYSLSFNPAEGTFLLTSRTHNKDLCAFELYKVASNSDGTTEAACVKSTGINALWVARNRFAVLDKAQNVSLRDLTNKELRKLENINTAVDDIFYAGTGMLLLRNDDGLQLFDVQQKIVTASVKVSKVRYVIWSKSMEFAALLSKHTLTLVNRKLEILCTQQESTRVKSGAWDDDSVFLYTTSNHIKYAINSGDCGIVRTLDLPLYILAIRGNVLYCLNRDATPVEVPIDNSDYKFKLALINKRIDEVVNMVRSANLVGQSIIGYLEKKGYPEIALHFVKDEKTRFGLAIECGNLEIALEAAKKLDEPAVWEALGETALLQGNHQIVEMSYQRTKNFEKLSFLYFVTGNTDKLVKMMKIAQARNDAHGHFQTALYTGDVEERVKVLRNCGQTSLAYLAAATHGYSAEAEELKAELESRQQPIPPVDPNARLLVPPPPVARLEENWPLLASARGTFDAQLLGLGGQSAPTNVGGVKPAAAAFAVMDDDDGDVGNEAWGDDEYLVGEDGELDVDEGEGPVDGDEEGGWDVDDDLALPDVTDDQGGDDDEEVVPNPAPAVSSEWPNVSRLAADHVAAGSFGTAIKLLHDTIGVVEAAPFKDVFVKAYAASRLSHRGWGGLGPAGPVSIHPVRNFQEDKNHLPVAAFKLSQLAKKLQKAYQMTTNGKFGDAVEKLREILLSVPLIVVSSKQEVAEAEQLITITREYLAALLLETYRKDLPKTNLEDAKRNAELAAYFTHFELQPMHRILTLRSAINTFFKMKQMKTCASLCKRLLELAPKPEVAAQIRKVLTAAEKDNTDAHQLTYDEHNPFVVCSRQFVPLYRGRPLCKCPYCGASYSEGLEGEVCNVCQVAEVGKNVLGLRISTLKS” the “soluble on expression in E. coli” value was “not soluble”. For “MSSKSIHEKRAIAKYAASLIEDGDCIFVDAGTTTYELIDYLEGKDILVVSNGLSHIDTLIQKNIKCYVIGGNIKISTKAITGCDALMCLSKFRFDKCFIGANGVHHTYGLTTPDTEEAILKECAINNSRKAYVLADDSKFGEISTIKFSDINKCVIITNEKPKDNTYDKKTDIKVVDILEHHHHHH”, the “soluble on expression in E. coli” value was “soluble”. For “MIETEKKEERVLLIGVELQGMDSFDLSMEELASLAKTAGAVVVDSYRQKREKYDSKTFVGSGKLEEIALMVDAEEITTVIVNNRLTPRQNVNLEEVLGVKVIDRMQLILDIFAMRARSHEGKLQVHLAQLKYLLPRLVGQGIMLSRQAGGIGSRGPGESQLELNRRSVRNQITDIERQLKVVEKNRATVREKRLESSTFKIGLIGYTNAGKSTIMNILTSKTQYEADELFATLDATTKSIHLGGNLQVTLTDTVGFIQDLPTELVSSFKSTLEESKHVDLLVHVIDASNPYHEEHEKTVLSIMKDLDMEDIPHLTLYNKADLVEDFTPTQTPYTLISAKSEDSRENLQALLLDKIKEIFEAFTLRVPFSKSYKIHDLESVAILEERDYQEDGEVITGYISEKNKWRLEEFYDLEHHHHHH”, the “soluble on expression in E. coli” value was “not soluble”. For “MLNSYELGTSFSLEYPRLVLPWMSKKMMSSRFPQHTSFKLYASQLNRARFFKMLSFGGTVSYDFQPSRVWKHTVTPFRLAFNTLQHTTTRFDTIVDKNRSLKISLGNQFIPAMSYTFTYDNAPLKKRNNLWWETSFTSAGNLTSLVYAAFGKGFKETDKKLLNSPYAQFLKMTSEVRCLFKVGEKQHIATRLMGGILYAYGNQTVAPYSEQFYIGGANSIRAFTVRSIGPGSYRPEDKQYGYLDETGDVKLEANVEYRFPILGDLYGAAFLDAGNVWLLREQKNEEGENIRPGGLLTLRNFAKSIALGTGVGLRYDLTFLVIRLDLGIALHDPYDTGKKGYYNIPKFKDGLGLHFAIGYPFLEHHHHHH”, the “soluble on expression in E. coli” value was “soluble”. In the case of “MAHHHHHHMTFCGFGCVSTSEVGIIENCGKFDRTADPGCFCIVPCVESVRGVVSLKVAISTVRVETKTRDNAVVNIETRLHYKVIAECAEDAFYRFSNPSEQIASFAASVVRGEVPKYTLDELFLMSDEIKKVVSAELTEKLRGFGFSLESTLLTRIEPSASVKTAISQTQINAYRRTAAEHESELNKILAVKAAEADYEEKRLSGVGLAQERQAIMKGLKSSIESFVNAVPSMRAKDVMNLLLLNQYFDAMKEVGSGKSNKLILMPNTCGAAPNFMADLVAAQAGAARMM”, the “soluble on expression in E. coli” value is reported as “not soluble”. With “MDDLRIEYDAPNDVYFPGQAVTGKVIIQNREWIKARFLKICIHGGAHTHWSESRSTYRTNTRGERERFTENVNYNATINYLTGESIAWQSRDGTDRLPAGTNVFPFAFNLPINCAPSFEGCHGHIRYDVHVELDRPWKFNKKSRKCFSVIPVFDLNITPTAINPMVNTASKNTGLILKKGLVTITVNLPKRGYVAGEIMPITVNIDNGSKVAVSEVSAKMTQLSHFHASHGNMIGVTAHTHNRNDEKLVAESRRVADVPAKSRGQMVLSMKIPAIVPSFNCPIIAVDYCLTVKVSTQQIFGGGLKCEFPLIIGTIPIRQMNQAAPGAMPTMPSVSAPPYPVVAGASASQAVYPTAPSAPPASPGGEAPPSYEESVHGAGKVEDAEAFAPRYPVYNNLPQQQNSQLPPEYAPPLPAKSGF” the “soluble on expression in E. coli” value was “not soluble”. For “MGSDKIHHHHHHMKLYAENILLNDGWASKQTITIEQGIITAVDAGKIEGAEIAKGAVIPGMVNCHSHAFQRAFAGFSEQGSEGQDSFWTWRKIMYQFLAQLTELDAKNIAKQLYIEMLKMGYTRVAEFHYLHHDIDGSTYNSSVTTDKSASLATMAQAIFDAAKESGIGLTLLPVLYQHSGFGEQTPSDGQKRFINSTEQFNQLVSDCFTLSEQYSNTNVGIAPHSLRAVDKTSLLSAVKHVRSLDNQAPIHIHISEQQKEVDDCLAHFGQRPVQWLLDNVELDKHWCLIHATHIDEAERKGIIAKEAIAGICPTTEANLGDGIFPTTEFLADKGTIAIGSDSHISVNPIEELRWLEYAQRLIKQQRAILATDEQASVGQNLWQQAAIGGAQSTNSNTGSLAIGKQADLLVLDKDKTKLFASASQQLLDSMIFASQQNPVSDVMVNGVWQIKAQQHVEQEQASDNFANLLVRLSAS”, the “soluble on expression in E. coli” value was “not soluble”. In the case of “GMDTRKLLLTAQEISRMKGEHKVHFLNPGAVRVNKSLGDAVGLRHMGIHLIQIEPGKESTEYHLHHYEEEAVYVLSGKGTLTMENDQYPIAPGDFVGFPCHAAAHSISNDGTETLVCLVIGQRLDQDVVDYPNQHKRLYRNNGEWNLVDMADIRVLREPTQK”, the “soluble on expression in E. coli” value is reported as “soluble”. For “MGNCLFGGLGDEEEDLLIKVIKSDGGVLEFYSPVTAGFVSHGFSGHALFSAVDLLWKPLAHDHLLVPGQSYYLFPNIVSDELKTFVGSCHVRSNSESLSAITPYRMSLDYNHRVLKRSYTDVFSRNSHIRTRQKEKKTRRRRTSSKGAIWKVNLIINTEELLQILSEDGRTNELIESVRAVAKGETSSITSSSSENFLSVVQT”, the “soluble on expression in E. coli” value was “soluble”. With “MGSDKIHHHHHHMTTLGVVYDKFLSPYFAGGGAVHAYEVTIRLKEHFKIVYYPSSPVLSWDKENVEKKAKELESQGIKVADEFYEILEEKRRIGRLKRFLFADKIAREFSKGFKVDADILYEPDHTSLDIFYLARDTKYGVTFHEPPFYNNSLRYFRRLVKFYGVNPYTGKGFHTRFLYNEYIKYLYKRLFKKVKKPTFLAGVSEAPLLESGLGGEVIKPGNAFNPSLLKFRNRGKEDYVVFWSRLNQDKGFHELPDILRIMEKRGGNKVRLILMGKFFDKYNERRFWSKVRKYDLRVDYKGFVKREELADIVSKAKVLIYPSHVDGFSLVALESLALGTPVVAYDIPAIKSVYGGLECVRIVNEFDKESMAENALKFYKMSEKEIEEIMNGDKLMEFLKLHSNWDNVANSVLKILKKYLI” the “soluble on expression in E. coli” value was “not soluble”. With “MNNLIKAINELKKEKNAIILGHYYQKGEIQDIADYVGDSLALAQLAAKTEADIIVMCGVHFMGETAKVLCPDKKVLVPDMEAGCSLADSCPADQFAQFVKEHPGHTVISYVNTTAAVKAVTDVVVTSTNARQIVESFPKDEKIIFGPDRNLGNYINSVTNRNMLLWDGACHVHEQFSVEKIVELKTQHPEALVLAHPECKSTVLKLADVVGSTAALLKYAVNHPENTYIVATESGILHEMQKKCPQTTFIPAPPNDSTCGCNECSFMRLNTLEKLYECLKNESPEITVDPEIAEKAVRPIQRMLEISAKLGL” the “soluble on expression in E. coli” value was “not soluble”.
